# Assay results: PMC7810697, “Sarcolipin alters SERCA1a interdomain communication by impairing binding of both calcium and ATP” (Scientific Reports, 2021)
# B1: SR: DDM-solubilized native rabbit sarco-endoplasmic reticulum SERCA1a, still containing native SLN (protein)
# chain: MEAAHSKSTEECLAYFGVSETTGLTPDQVKRHLEKYGHNELPAEEGKSLWELVIEQFEDLLVRILLLAACISFVLAWFEEGEETITAFVEPFVILLILIANAIVGVWQERNAENAIEALKEYEPEMGKVYRADRKSVQRIKARDIVPGDIVEVAVGDKVPADIRILSIKSTTLRVDQSILTGESVSVIKHTEPVPDPRAVNQDKKNMLFSGTNIAAGKALGIVATTGVSTEIGKIRDQMAATEQDKTPLQQKLDEFGEQLSKVISLICVAVWLINIGHFNDPVHGGSWIRGAIYYFKIAVALAVAAIPEGLPAVITTCLALGTRRMAKKNAIVRSLPSVETLGCTSVICSDKTGTLTTNQMSVCKMFIIDKVDGDFCSLNEFSITGSTYAPEGEVLKNDKPIRSGQFDGLVELATICALCNDSSLDFNETKGVYEKVGEATETALTTLVEKMNVFNTEVRNLSKVERANACNSVIRQLMKKEFTLEFSRDRKSMSVYCSPAKSSRAAVGNKMFVKGAPEGVIDRCNYVRVGTTRVPMTGPVKEKILSVIKEWGTGRDTLRCLALATRDTPPKREEMVLDDSSRFMEYETDLTFVGVVGMLDPPRKEVMGSIQLCRDAGIRVIMITGDNKGTAIAICRRIGIFGENEEVADRAYTGREFDDLPLAEQREACRRACCFARVEPSHKSKIVEYLQSYDEITAMTGDGVNDAPALKKAEIGIAMGSGTAVAKTASEMVLADDNFSTIVAAVEEGRAIYNNMKQFIRYLISSNVGEVVCIFLTAALGLPEALIPVQLLWVNLVTDGLPATALGFNPPDLDIMDRPPRSPKEPLISGWLFFRYMAIGGYVGAATVGAAAWWFMYAEDGPGVTYHQLTHFMQCTEDHPHFEGLDCEIFEAPEPMTMALSVLVTIEMCNALNSLSENQSLMRMPPWVNIWLLGSICLSMSLHFLILYVDPLPMIFKLKALDLTQWLMVLKISLPVIGLDEILKFIARNYLEG
# Experiments:
# [1] = target: T1, DDM-solubilized SR (native SERCA1a) (Oryctolagus cuniculus, UniProt P04191); test: Vanadate inhibition of phosphoenzyme formation, DDM-solubilized SR; type: biochemical, rabbit; conditions: Suppl. Fig. 7
# T1 construct: DDM-solubilized native SERCA1a purification; from tissue; host or cells: rabbit skeletal muscle sarcoplasmic reticulum
# Description: (§1) Transient formation of the phosphoenzyme intermediate was measured after incubation with [γ^32P]ATP followed by acid quenching, and filtration. For most experiments, 50 µL of enzyme at 10 µg/mL in a buffer containing 50 mM Tes-Tris pH7.5, 1 mM KCl, 5 mM MgCl2, 20% glycerol (w/w) and 0.5 mg/mL DDM, supplemented or not with SLN, was stored on ice. Concentrations of EGTA and calcium are specified in figure legends in order to reach the appropriate [Ca^2+]free and therefore the desired starting state for the ATPase. For kinetics of phosphorylation, we initiate reaction by addition of 2 µM [γ^32P]ATP (5 mCi/µmole), and calcium at 100 µM when specified. Reaction was quenched by addition of 2 mL of cold quenching medium (500 mM TCA + 30 mM H3P0_4) under vigorous mixing, and immediately stored on ice for 20–30 min to improve precipitation, a period of time critical for retention of the precipitate on the filter in presence of detergent. This was followed by filtration on GS filters (Millipore, Saint Quentin-Fallavier, France) and careful rinsing of the filters with diluted quenching medium (50 mM TCA + 3 mM H3P0_4). The amount of radioactivity bound to the filter was estimated by liquid scintillation counting (Perkin Elmer TriCarb Counter). […]
# [2] = target: T1, DDM-solubilized SR (native SERCA1a); test: Kinetics of phosphorylation from [γ32P]ATP, DDM-solubilized SR; type: biochemical, rabbit; conditions: calcium-deprived state
# Description: as §1
molecule,measurement,setting,value
B1,"EPmax (vanadate series), DDM-solubilized SR",[1],3.66+/-0.54 nmoles/mg of ATPase
same,"maximum level of phosphorylated intermediate, DDM-solubilized SR",[2]; Suppl. Fig. 5A,6.39+/-0.20 nmoles EP/mg ATPase
same,"t1/2 of phosphorylation, DDM-solubilized SR","[2]; no SLN added (native SLN present), three replicates from two independent experiments, p<0.0001 vs recS1a alone, p=0.002 vs recS1a+Palm-SLN or recS1a+SLN",10.4 s⁻¹
